Reference: patent US20140186348A1 (NOVELMED THERAPEUTICS, published 2014)
Substitutions are numbered along the chain they refer to. Blank lines part the entries; values can stand above or below the binder they belong to.

Experiments:
[1] = target: T1, human properdin (human, UniProt P27918 28-469); experiment: cell-based or functional assay
[2] = target: T1, human properdin; experiment: competition ELISA: varied antibody with 50 nM properdin on C3b-coated wells
[3] = target: T1, human properdin; experiment: properdin ELISA
[4] = target: T1, human properdin; experiment: properdin ELISA (FIG. 27)

T1 sequence (P27918 28-469 limits assumed): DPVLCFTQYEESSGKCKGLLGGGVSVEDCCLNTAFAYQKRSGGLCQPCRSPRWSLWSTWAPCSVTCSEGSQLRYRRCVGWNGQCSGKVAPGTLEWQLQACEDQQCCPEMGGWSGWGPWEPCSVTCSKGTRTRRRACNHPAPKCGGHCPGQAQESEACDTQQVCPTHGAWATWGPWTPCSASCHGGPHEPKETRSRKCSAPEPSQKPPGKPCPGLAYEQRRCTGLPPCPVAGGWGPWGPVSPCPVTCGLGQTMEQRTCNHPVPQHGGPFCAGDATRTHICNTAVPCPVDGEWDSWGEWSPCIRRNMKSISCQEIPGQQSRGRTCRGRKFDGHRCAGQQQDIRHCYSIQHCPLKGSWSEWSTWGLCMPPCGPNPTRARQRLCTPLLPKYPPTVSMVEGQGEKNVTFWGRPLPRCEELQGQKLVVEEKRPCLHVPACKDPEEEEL

erythrocyte lysis assay using rabbit erythrocytes, IC50 [1]: 20 to 30 nM
B1: NM9401-IgG (murine anti-properdin monoclonal antibody, IgG1) (antibody, V domains shown)
VH: QVQLQQSAPELARPGASVKMSCTASGYIFTNYPIHWVKQRPGQGLEWIGFIDPGGGYDEPDERFRDRATLTADKSSSTAYMQLSSLTSEDSAIYYCARRGGGYYLDYWGQGTTLTVSS
VL: DIQMTQTTSSLSASLGDRVTISCRASQDISFFLNWYQQKPDGTVKLLIYYTSRYHSGVPSRFSGSGSGTDFSLTINNLEQEDFATYFCQHGNTLPWTFGGGTKLEIKR

concentration inhibiting properdin binding to C3b (quantity not named, IC50 implied) [2]: 72 nM | molar ratio of antibody to properdin [2]: 1.2
B2: NM9401-Fab (Fab, V domains shown)
VH: B1 VH
VL: B1 VL
notes: Fab fragment of the murine NM9401 IgG

erythrocyte lysis assay using rabbit erythrocytes, IC50 [1]: 20 to 30 nM | Kd [3]: ~0.054 nM
B3: BAP010-1 (chimeric anti-properdin IgG1) (antibody, V domains shown)
VH: B1 VH
VL: DIQMTQTTSSLSASLGDRVTISCRASQDISFFLNWYQQKPDGTVKLLIYYTSRYHSGVPSRFSGSGSGTDFSLTINNLEQEDFATYFCQHGNTLPWTFGGGTKLEIK
notes: Murine variable domains (heavy chain clone mH6-3g, light chain clone mK10) fused in frame to a human IgG1 constant region and a human kappa constant region; also called chimeric anti-properdin monoclonal antibody; recombinant antibody BAP010-1

binding result [4]: binds
B4: BAP010hum03 (humanized anti-properdin monoclonal antibody) (antibody, V domains shown)
VH: EVQLVQSGAEVKKPGESLRISCKGSGYIFTNYPIHWIRQSPSRGLEWLGFIDPGGGYDEPDERFRDRVTISADKSISTAYLQWSSLKASDTAMYYCARRGGGYYLDYWGQG
VL: DIQMTQSPSSLSASVGDRVTITCRASQDISFFLNWYQQKPGKAPKLLIYYTSRYHSGVPSRFSGSGSGTEFTLTISSLQSEDFAVYYCQHGNTLPWTFGQG
notes: Labelled _HC and _LC; Expressed as human IgG; also called BAP010hum03_HC

binding result [4]: binds
B5: BAP010hum10 (humanized anti-properdin monoclonal antibody) (antibody, V domains shown)
VH: QVQLQESGPGLVKPSQTLSLTCTVSGYIFTNYPIHWVRQATGQGLEWMGFIDPGGGYDEPDERFRDRVTITADKSTSTAYMELSSLRSEDTAVYYCARRGGGYYLDYWGQG
VL: B4 VL with V58I, S60P, S67Y, L73F, Q79E, S80A, F83A, V85T
notes: Labelled _HC and _LC; Expressed as human IgG; also called BAP010hum10_HC

concentration inhibiting properdin binding to C3b (quantity not named, IC50 implied) [2]: 29 nM | molar ratio of antibody to properdin [2]: 0.5
B6: NM9401-F(ab′)2 (other)
VH: QVQLQQSAPELARPGASVKMSCTASGYIFTNYPIHWVKQRPGQGLEWIGFIDPGGGYDEPDERFRDRATLTADKSSSTAYMQLSSLTSEDSAIYYCARRGGGYYLDYWGQGTTLTVSSAKTT
VL: DIQMTQTTSSLSASLGDRVTISCRASQDISFFLNWYQQKPDGTVKLLIYYTSRYHSGVPSRFSGSGSGTDFSLTINNLEQEDFATYFCQHGNTLPWTFGGGTKLEIKRADAAPTVSIFPPSSEQLTSGGASVVCFLNN
notes: F(ab′)2 fragment of the murine NM9401 IgG

binding result [4]: binds
B7: BAP010hum02 (humanized anti-properdin monoclonal antibody) (antibody, V domains shown)
VH: QVQLQESGPGLVKPSQTLSLTCTVSGYIFTNYPIHWVRQAPGKGLEWVSFIDPGGGYDEPDERFRDRVTISVDTSKNQFSLKLSSVTAADTAVYYCARRGGGYYLDYWGQG
VL: EIVLTQSPATLSLSPGERATLSCRASQDISFFLNWFQQRPGQSPRRLIYYTSRYHSGIPPRFSGSGYGTDFTLTINNIESEDAAYYFCQHGNTLPWTFGQG
notes: Labelled _HC and _LC; Expressed as human IgG from BioAtla's mammalian vector; also called BAP010hum02_HC
